The values below come from publication PMC7048932, “Examining sterically demanding lysine analogs for histone lysine methyltransferase catalysis” (Scientific Reports, 2020).

Substrate in data set [1]: C[C@H](N)C(=O)N[C@@H](CCCNC(=N)N)C(=O)N[C@H](C(=O)N[C@@H](CCCCN)C(=O)N[C@@H](CCC(N)=O)C(=O)N[C@H](C(=O)N[C@@H](C)C(=O)N[C@@H](CCCNC(=N)N)C(=O)N[C@@H](CCC1CC1N)C(=O)N[C@@H](CO)C(=O)N[C@H](C(=O)NCC(=O)NCC(=O)N[C@@H](CCCCN)C(=O)N[C@@H](C)C(=O)O)[C@@H](C)O)[C@@H](C)O)[C@@H](C)O
Put plainly: Enzyme kinetics of G9a-catalyzed methylation (MALDI-TOF MS). It counts as biochemical, human. Particulars: other: G9a-catalyzed methylation, MALDI-TOF MS assay; pH 8.0; 37.0 °C.
Procedure: To establish the substrate efficiency of lysine- and KCP-containing histone peptides, we carried out enzyme kinetics analysis, employing the MALDI-TOF MS assays[22].
MALDI-MS methyltransferases activity experiments were performed using a Bruker instrument in the reflectron positive mode. For regular methyltransferase standard conditions experiment which carried out in 30 µL total volume, the mixture contains peptide (100 µM), SAM (200 µM), SETD8 or SETD7 (2 µM), in assay buffer 50 mM Tris at optimal pH 8.0. In case of G9a and GLP, similar conditions were used, except (500 µM) of SAM was added to the reaction mixture. Samples were incubated in an Eppendorf vial 1.5 mL using thermomixer for 1 h at 37 °C. A 5 µL aliquot of the solution was mixed with 5 µL of MeOH, after which 5 µL of this mixture was mixed with 5 µL of α-cyano-4-hydroxycinamic acid matrix (CHCA, 5 mg/mL in 125:125 µL acetonitrile/water). The spots were placed on a stainless steel MALDI plate (MS 96 target ground steel BC of Bruker, Germany). The mass corresponding to one monomethylation observed as +14 Da, dimethylation observed as +28 Da and trimethylation observed as +42 Da. The enzymatic activity was determined by taking the peak areas of each methylation state, including all isotopes and adducts, and was annotated using FlexAnalysis software (Bruker Daltonics, Germany). […] Methylated peptide substrates were repeated five times and the unmethylated substrates were triplicated.

Data set [2] deals with GLP (human) (UniProt Q9H9B1).
Sequence of GLP (human) (Q9H9B1 whole entry): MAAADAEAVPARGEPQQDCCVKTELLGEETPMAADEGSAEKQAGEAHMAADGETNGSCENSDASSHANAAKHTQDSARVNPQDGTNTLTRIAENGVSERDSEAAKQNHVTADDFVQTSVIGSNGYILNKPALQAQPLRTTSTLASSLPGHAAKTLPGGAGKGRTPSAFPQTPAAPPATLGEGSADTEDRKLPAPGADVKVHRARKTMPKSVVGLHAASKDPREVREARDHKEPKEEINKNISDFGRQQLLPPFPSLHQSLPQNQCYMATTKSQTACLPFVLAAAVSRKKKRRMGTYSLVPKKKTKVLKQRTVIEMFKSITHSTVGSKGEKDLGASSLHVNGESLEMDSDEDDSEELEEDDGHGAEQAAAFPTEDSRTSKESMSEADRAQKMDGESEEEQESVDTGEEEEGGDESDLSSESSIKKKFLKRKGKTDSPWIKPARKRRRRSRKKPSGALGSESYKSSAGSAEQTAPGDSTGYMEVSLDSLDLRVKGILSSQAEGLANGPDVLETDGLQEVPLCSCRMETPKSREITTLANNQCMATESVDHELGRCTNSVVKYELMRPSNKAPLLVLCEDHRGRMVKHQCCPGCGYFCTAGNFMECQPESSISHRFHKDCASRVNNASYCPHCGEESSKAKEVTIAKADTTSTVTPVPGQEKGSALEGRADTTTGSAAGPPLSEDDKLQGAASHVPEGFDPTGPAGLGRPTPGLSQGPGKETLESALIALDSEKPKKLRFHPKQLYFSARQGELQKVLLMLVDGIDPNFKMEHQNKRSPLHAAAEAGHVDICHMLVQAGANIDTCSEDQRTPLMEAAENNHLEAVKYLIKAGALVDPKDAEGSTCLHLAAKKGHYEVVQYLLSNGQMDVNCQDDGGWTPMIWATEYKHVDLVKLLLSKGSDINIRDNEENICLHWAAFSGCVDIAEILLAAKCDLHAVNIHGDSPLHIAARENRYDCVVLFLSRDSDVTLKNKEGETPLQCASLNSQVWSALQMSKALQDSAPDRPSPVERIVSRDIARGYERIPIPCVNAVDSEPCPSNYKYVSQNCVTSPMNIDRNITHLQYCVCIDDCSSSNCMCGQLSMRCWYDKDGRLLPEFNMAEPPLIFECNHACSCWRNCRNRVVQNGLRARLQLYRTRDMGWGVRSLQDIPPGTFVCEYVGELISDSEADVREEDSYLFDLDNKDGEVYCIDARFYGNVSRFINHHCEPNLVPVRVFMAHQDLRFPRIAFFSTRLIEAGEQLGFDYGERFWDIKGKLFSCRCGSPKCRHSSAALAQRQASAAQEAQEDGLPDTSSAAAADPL
Data set [3] has as its target G9a (human) (UniProt Q96KQ7).
Data set [4] deals with T1, SETD7 (human) (UniProt Q8WTS6).
T1 sequence: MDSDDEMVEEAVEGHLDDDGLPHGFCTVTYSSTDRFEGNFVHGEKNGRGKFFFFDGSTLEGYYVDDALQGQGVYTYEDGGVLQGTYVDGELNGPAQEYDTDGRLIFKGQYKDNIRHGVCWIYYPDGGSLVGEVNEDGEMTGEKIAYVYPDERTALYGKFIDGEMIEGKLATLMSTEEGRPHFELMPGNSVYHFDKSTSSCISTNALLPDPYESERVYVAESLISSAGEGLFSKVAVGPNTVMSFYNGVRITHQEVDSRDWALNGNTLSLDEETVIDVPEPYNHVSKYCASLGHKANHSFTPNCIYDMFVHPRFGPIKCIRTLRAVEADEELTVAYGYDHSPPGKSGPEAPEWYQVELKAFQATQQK

B1: G9a (Homo sapiens) (protein)
chain: MAAAAGAAAAAAAEGEAPAEMGALLLEKETRGATERVHGSLGDTPRSEETLPKATPDSLEPAGPSSPASVTVTVGDEGADTPVGATPLIGDESENLEGDGDLRGGRILLGHATKSFPSSPSKGGSCPSRAKMSMTGAGKSPPSVQSLAMRLLSMPGAQGAAAAGSEPPPATTSPEGQPKVHRARKTMSKPGNGQPPVPEKRPPEIQHFRMSDDVHSLGKVTSDLAKRRKLNSGGGLSEELGSARRSGEVTLTKGDPGSLEEWETVVGDDFSLYYDSYSVDERVDSDSKSEVEALTEQLSEEEEEEEEEEEEEEEEEEEEEEEEDEESGNQSDRSGSSGRRKAKKKWRKDSPWVKPSRKRRKREPPRAKEPRGVNGVGSSGPSEYMEVPLGSLELPSEGTLSPNHAGVSNDTSSLETERGFEELPLCSCRMEAPKIDRISERAGHKCMATESVDGELSGCNAAILKRETMRPSSRVALMVLCETHRARMVKHHCCPGCGYFCTAGTFLECHPDFRVAHRFHKACVSQLNGMVFCPHCGEDASEAQEVTIPRGDGVTPPAGTAAPAPPPLSQDVPGRADTSQPSARMRGHGEPRRPPCDPLADTIDSSGPSLTLPNGGCLSAVGLPLGPGREALEKALVIQESERRKKLRFHPRQLYLSVKQGELQKVILMLLDNLDPNFQSDQQSKRTPLHAAAQKGSVEICHVLLQAGANINAVDKQQRTPLMEAVVNNHLEVARYMVQRGGCVYSKEEDGSTCLHHAAKIGNLEMVSLLLSTGQVDVNAQDSGGWTPIIWAAEHKHIEVIRMLLTRGADVTLTDNEENICLHWASFTGSAAIAEVLLNARCDLHAVNYHGDTPLHIAARESYHDCVLLFLSRGANPELRNKEGDTAWDLTPERSDVWFALQLNRKLRLGVGNRAIRTEKIICRDVARGYENVPIPCVNGVDGEPCPEDYKYISENCETSTMNIDRNITHLQHCTCVDDCSSSNCLCGQLSIRCWYDKDGRLLQEFNKIEPPLIFECNQACSCWRNCKNRVVQSGIKVRLQLYRTAKMGWGVRALQTIPQGTFICEYVGELISDAEADVREDDSYLFDLDNKDGEVYCIDARYYGNISRFINHLCDPNIIPVRVFMLHQDLRFPRIAFFSSRDIRTGEELGFDYGDRFWDIKSKYFTCQCGSEKCKHSAEAIALEQSRLARLDPHPELLPELGSLPPVNT
notes: His6 (N); made in house; host or cells: E. coli BL21 (DE3)pLysS-rosetta
As for B1, in data set [1], the Km (in general, the substrate concentration at which the rate is half of its maximum) was 22.6 ± 5.0 µM; the turnover number (kcat) – broadly, the number of substrate molecules converted per active site and unit of time at saturation – came out at 0.0463 ± 0.0005 s⁻¹; the catalytic efficiency (kcat/Km) (usually the turnover number divided by the Michaelis constant) was determined as 2070 M⁻¹ s⁻¹.
For the molecule ARTKQTARYSTGGKA [H3Y9 histone peptide], the IC50 of inhibition of GLP (100 nM) methylation of a 21-mer H3 peptide (residues 1–21, 5 µM) with SAM (20 µM), MALDI-TOF MS in data set [2] was above 100 µM. Moreover, the IC50 of inhibition of G9a (100 nM) methylation of a 21-mer H3 peptide (residues 1–21, 5 µM) with SAM (20 µM), MALDI-TOF MS in data set [3] was above 100 µM.
In data set [4], ARTYQTARKSTGGKA [H3K4 analog histone peptide with tyrosine (Y) at position 4] yielded an IC50 of inhibition of SETD7 (100 nM) methylation of a 21-mer H3 peptide (residues 1–21, 5 µM) with SAM (20 µM), MALDI-TOF MS above 100 µM.
